± gives the standard deviation of the averaged measurements.
system: ATP; assay: switch fluorescence ratio, 500 uM ATP over buffer (Cy3 cluster intensity, sum of 5 cycles each) (fold (ratio)); higher = stronger signal-on switching upon ATP binding; sequences stand for … in TCGTCGGCAGCGTCAGATGTGTATAAGAGACAGTTTTTTTTTTTTTTTTTTTTTTTTT…TC; conditions: aptamer strand: ATP DNA aptamer (quencher-CACCTGGGGGAGTATTGCGGAGGAAGG + anchor), 100 nM annealed; ATP concentration: 500 uM
In short: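 Between each of five buffer/ATP cycles, the flow-cell was stripped with NaOH and re-annealed. Each cycle imaged Cy3-labelled switching-strand clusters, annealed to 100 nM quencher-labelled ATP aptamer on a modified Illumina MiSeq flow-cell, first in selection buffer and then after 15 min with 500 uM ATP at 22 °C. The fluorescence ratio is summed target-cycle over summed buffer-cycle Cy3 intensity per cluster, averaged per switch-domain sequence, with clusters outside 100-1000 RFU excluded.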
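Note: ATP exposure 15 min at 22 °C before imaging.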

Sequence | switch fluorescence ratio
TAGGTAAATC | 1.01 ± 0.024
TTTGCTTACG | 1.1 ± 0.13
TTAACGCGTT | 1.0063 ± 0.00089
ACAGTTATTA | 1.03 ± 0.028
TTTTAAATTT | 1.01 ± 0.11
TGTGAAACGG | 0.9916 ± 0.0072
ATTATCGCGC | 0.983 ± 0.031
TTTTTTATT | 0.963 ± 0.013
GCCACGGGGA | 1.0073 ± 0.00078
AGTTTAGGAC | 0.985 ± 0.031
CGCCTGACAC | 1.26 ± 0.0035
GTACATATAA | 1.03 ± 0.011
GATTCAGGTA | 1.01 ± 0.026
AGGAGAGTCA | 0.9825 ± 0.0036
AATAAAGGAT | 1 ± 0.017
TAGCGGGGGG | 1.02 ± 0.046
TAGGGTTTAA | 1.01 ± 0.021
TTTCGGGGGT | 1.07 ± 0.25
GTTTTTTTAA | 1 ± 0.034
TACTTAAGTG | 1.02 ± 0.047
GATAGCGGGA | 0.97 ± 0.058
AACGTATGTT | 0.9895 ± 0.0028
GATAAAGTGG | 0.995 ± 0.041
CATTCTGTGT | 1.019 ± 0.0023
TAGGCAGCGG | 0.991 ± 0.023

Sequence | switch fluorescence ratio
CGTTTGGGGA | 0.99 ± 0.015
TGGGTGGGCC | 0.981 ± 0.023
TGATTTATTC | 0.9632 ± 0.0032
GATGAAATGT | 0.994 ± 0.015
CAGTATCTGA | 1 ± 0.0047
ATTATACGGC | 1.056 ± 0.0042
CCGGGTGGTA | 1.17 ± 0.015
GTGAGAGCGG | 0.963 ± 0.033
AACATATTGG | 1.01 ± 0.073
ATGTAATATA | 1.02 ± 0.06
CAAGTGGCAT | 1.017 ± 0.0079
AGGCGGATTT | 1 ± 0.044
TACGTTTGCG | 1.01 ± 0.014
AGGGGCGGGA | 0.962 ± 0.041
TCACCATTCA | 1.052 ± 0.0059
AGTGGGGGAA | 0.985 ± 0.027
TCAACCGGGG | 1.079 ± 0.0021
TCGGGTTTTA | 1.03 ± 0.039
TAGGAAGGTT | 0.9879 ± 0.0036
ATTTTTTAAC | 1.019 ± 0.0096
GATAGGTGCC | 1.002 ± 0.0027
GCGTACCAAT | 1.067 ± 0.0033
TGAATACTTT | 0.996 ± 0.044
AGTGATCAGG | 1 ± 0.019
TTGTATTCGG | 1 ± 0.03

Sequence | switch fluorescence ratio
GCCGCCAGGG | 1.26 ± 0.068
TCATCGGTTT | 0.977 ± 0.017
ATGTAGTTAT | 0.996 ± 0.048
AATTAGTTCG | 0.98 ± 0.02
GCTAGTTTCG | 1.03 ± 0.019
TATTGGGCTT | 0.989 ± 0.018
TCATTAATAG | 0.996 ± 0.012
TTGGGGGGCA | 1.32 ± 0.65
TTTTTATCAA | 1.01 ± 0.041
ATGTTTTCCT | 1.0718 ± 0.00067
GGGTCCGGCC | 0.992 ± 0.02
TTAAGTCCGG | 0.9629 ± 0.0071
CGGTTGCGGA | 0.995 ± 0.051
TAAAGAATTT | 0.98 ± 0.032
GAAGCGGTGG | 0.954 ± 0.09
AAGGTATATA | 0.9938 ± 0.0031
AGTTTGTTTT | 0.966 ± 0.049
CGTTGACCTT | 1.07 ± 0.029
TTAATAAGAC | 1.04 ± 0.054
TTAATCTCGG | 0.9954 ± 0.0016
TAATAGTTT | 1.04 ± 0.033
TTACAGTTAA | 1.01 ± 0.021
GGTTAAGGGT | 0.9892 ± 0.0056
TTGAGTTAC | 1.03 ± 0.06
TGATAGGATT | 0.9764 ± 0.0021

Sequence | switch fluorescence ratio
CGGGGATCGT | 1 ± 0.032
TATGTGGACA | 0.9964 ± 0.0047
GGAGACGGGA | 1.06 ± 0.016
GATAGAGATT | 0.9961 ± 0.0066
TGAGTGAAAT | 1.1 ± 0.014
TATGTGCAGG | 0.995 ± 0.015
TGAAATAGGA | 1.01 ± 0.039
CCGTTGAGCT | 1.112 ± 0.01
TGGGGGTATC | 0.978 ± 0.024
AGTTGGATGC | 0.965 ± 0.068
GTCGTATGAC | 1.08 ± 0.042
TCGTGGGGGC | 1.07 ± 0.14
ATAAAAATTT | 1 ± 0.024
TTTTGGAGAT | 1.01 ± 0.027
TACAAGCTTT | 0.992 ± 0.024
GTTCGTTGAC | 0.9862 ± 0.0067
GCTCCTGTTA | 1.11 ± 0.027
CGTAAGTTTT | 0.98 ± 0.03
ATTTTAGCGT | 0.9958 ± 0.0062
CGGTAGGCGG | 0.971 ± 0.018
GGATTGGGGG | 0.995 ± 0.02
GGAAGCGTTC | 1.03 ± 0.04
GGGGTGTAAT | 1.01 ± 0.021
GACTATTAGC | 0.984 ± 0.028
GCTCTTGTCT | 0.985 ± 0.061

Source: the supplement of paper PMC10126150
